Assay [1] addresses cynomolgus monkey DLL4 extracellular domain (cynomolgus monkey). Description: binding ELISA.
Assay [2] shares this target. As to the kind of experiment: Biacore SPR.

Some results are limits rather than exact numbers.

Consider 20 molecules from US20160031986A1.

B1: h1A11.2 (antibody, V domains shown)
VH: EVQLVESGGGLVQPGGSLRLSCAASGFTFSNFPMAWVRQAPGKGLEWVATISSSDGTTYYRDSVKGRFTISRDNAKNSLYLQMNSLRAEDTAVYYCARGYYNSPFAYWGQGTLVTVSS
VL: DIQMTQSPSSLSASVGDRVTITCRASEDIYSNLAWYQQKPGKSPKLLIFDTNNLADGVPSRFSGSGSGTDSTLTISSLQPEDFATYFCQQYNNYPPTFGQGTKLEIKR
For the molecule B1, in assay [1], the EC50 turned out to be 0.13 nM.

B2: h1A11.10 (antibody, V domains shown)
VH: EVQLVESGGGLVQPGGSLRLSCAASGFTFSNFPMAWVRQAPGKGLEWVATISSSDGTTYYRDSVKGRFTISRDNAKNSLYLQMNSLRAEDTAVYYCSRGYYNSPFAYWGQGTLVTVSS
VL: DIQMTQSPSSLSASVGDRVTITCRASEDIYSNLAWYQQKPGKSPKLLIFDTNNLADGVPSRFSGSGSGTDSTLTISSLQPEDFATYFCQQYNNYPPTFGQGTKLEIKR
In turn, B2 gave an EC50 in assay [1] of 0.15 nM.

B3: h1A11.5 (antibody, V domains shown)
VH: EVQLVESGGGLVQPGGSLRLSCAASGFTFSNFPMAWVRQAPGKGLEWVATISSSDGTTYYRDSVKGRFTISRDNAKSSLYLQMNSLRAEDTAVYYCSRGYYNSPFAYWGQGTLVTVSS
VL: DIQMTQSPSSLSASVGDRVTITCRASEDIYSNLAWYQQKPGKAPKLLIYDTNNLADGVPSRFSGSGSGTDFTLTISSLQPEDFATYYCQQYNNYPPTFGQGTKLEIKR
In turn, B3 gave an EC50 in assay [1] of 0.16 nM.

B4: h1A11.8 (antibody, V domains shown)
VH: EVQLVESGGGLVQPGGSLRLSCAASGFTFSNFPMAWVRQAPGKGLEWVATISSSDGTTYYRDSVKGRFTISRDNAKSSLYLQMNSLRAEDTAVYYCSRGYYNSPFAYWGQGTLVTVSS
VL: EIVMTQSPATLSVSPGERATLSCRASEDIYSNLAWYQQKPGQSPRLLIFDTNNLADGVPARFSGSGSGTESTLTISSLQSEDFAVYFCQQYNNYPPTFGQGTKLEIKR
Consider B4, for which, in assay [1], the EC50 came out at 0.17 nM.

B5: h1A11.12 (antibody, V domains shown)
VH: EVQLVESGGGLVQPGGSLRLSCAASGFTFSNFPMAWVRQAPGKGLEWVATISSSDGTTYYRDSVKGRFTISRDNAKNSLYLQMNSLRAEDTAVYYCSRGYYNSPFAYWGQGTLVTVSS
VL: EIVMTQSPATLSVSPGERATLSCRASEDIYSNLAWYQQKPGQSPRLLIFDTNNLADGVPARFSGSGSGTESTLTISSLQSEDFAVYFCQQYNNYPPTFGQGTKLEIKR
Molecule B5 showed an EC50 in assay [1] of 0.16 nM.

B6: h1A11.3 (antibody, V domains shown)
VH: EVQLVESGGGLVQPGGSLRLSCAASGFTFSNFPMAWVRQAPGKGLEWVATISSSDGTTYYRDSVKGRFTISRDNAKNSLYLQMNSLRAEDTAVYYCARGYYNSPFAYWGQGTLVTVSS
VL: DIQMTQSPSSLSASVGDRVTITCRASEDIYSNLAWYQQKPGKAPKLLIFDTNNLADGVPSRFSGSGSGTDFTLTISSLQPEDFATYYCQQYNNYPPTFGQGTKLEIKR
Take B6: the EC50 in assay [1] was 0.16 nM.

B7: h1A11.6 (antibody, V domains shown)
VH: EVQLVESGGGLVQPGGSLRLSCAASGFTFSNFPMAWVRQAPGKGLEWVATISSSDGTTYYRDSVKGRFTISRDNAKSSLYLQMNSLRAEDTAVYYCSRGYYNSPFAYWGQGTLVTVSS
VL: DIQMTQSPSSLSASVGDRVTITCRASEDIYSNLAWYQQKPGKSPKLLIFDTNNLADGVPSRFSGSGSGTDSTLTISSLQPEDFATYFCQQYNNYPPTFGQGTKLEIKR
B7 returned an EC50 in assay [1] of 0.13 nM.

B8: h1A11.4 (antibody, V domains shown)
VH: EVQLVESGGGLVQPGGSLRLSCAASGFTFSNFPMAWVRQAPGKGLEWVATISSSDGTTYYRDSVKGRFTISRDNAKNSLYLQMNSLRAEDTAVYYCARGYYNSPFAYWGQGTLVTVSS
VL: EIVMTQSPATLSVSPGERATLSCRASEDIYSNLAWYQQKPGQSPRLLIFDTNNLADGVPARFSGSGSGTESTLTISSLQSEDFAVYFCQQYNNYPPTFGQGTKLEIKR
As for B8, the EC50 in assay [1] came out at 0.17 nM.

B9: h1A11.9 (antibody, V domains shown)
VH: EVQLVESGGGLVQPGGSLRLSCAASGFTFSNFPMAWVRQAPGKGLEWVATISSSDGTTYYRDSVKGRFTISRDNAKNSLYLQMNSLRAEDTAVYYCSRGYYNSPFAYWGQGTLVTVSS
VL: DIQMTQSPSSLSASVGDRVTITCRASEDIYSNLAWYQQKPGKAPKLLIYDTNNLADGVPSRFSGSGSGTDFTLTISSLQPEDFATYYCQQYNNYPPTFGQGTKLEIKR
The molecule B9 came in with an EC50 in assay [1] of 0.15 nM.

B10: h1A11.7 (antibody, V domains shown)
VH: EVQLVESGGGLVQPGGSLRLSCAASGFTFSNFPMAWVRQAPGKGLEWVATISSSDGTTYYRDSVKGRFTISRDNAKSSLYLQMNSLRAEDTAVYYCSRGYYNSPFAYWGQGTLVTVSS
VL: DIQMTQSPSSLSASVGDRVTITCRASEDIYSNLAWYQQKPGKAPKLLIFDTNNLADGVPSRFSGSGSGTDFTLTISSLQPEDFATYYCQQYNNYPPTFGQGTKLEIKR
Molecule B10 yielded an EC50 in assay [1] of 0.14 nM.

B11: h1A11.14 (antibody, V domains shown)
VH: EVQLVESGGGLVQPGGSLRLSCAASGFTFSNFPMAWVRQAPGKGLEWVATISSSDGTTYYRDSVKGRFTISRDNSKSTLYLQMNSLRAEDTAVYYCSRGYYNSPFAYWGQGTLVTVSS
VL: DIQMTQSPSSLSASVGDRVTITCRASEDIYSNLAWYQQKPGKSPKLLIFDTNNLADGVPSRFSGSGSGTDSTLTISSLQPEDFATYFCQQYNNYPPTFGQGTKLEIKR
In turn, B11 registered an EC50 in assay [1] of 0.14 nM.

B12: h1A11.13 (antibody, V domains shown)
VH: EVQLVESGGGLVQPGGSLRLSCAASGFTFSNFPMAWVRQAPGKGLEWVATISSSDGTTYYRDSVKGRFTISRDNSKSTLYLQMNSLRAEDTAVYYCSRGYYNSPFAYWGQGTLVTVSS
VL: DIQMTQSPSSLSASVGDRVTITCRASEDIYSNLAWYQQKPGKAPKLLIYDTNNLADGVPSRFSGSGSGTDFTLTISSLQPEDFATYYCQQYNNYPPTFGQGTKLEIKR
Regarding B12, in assay [1], the EC50 was 0.16 nM.

B13: h1A11.11 (antibody, V domains shown)
VH: EVQLVESGGGLVQPGGSLRLSCAASGFTFSNFPMAWVRQAPGKGLEWVATISSSDGTTYYRDSVKGRFTISRDNAKNSLYLQMNSLRAEDTAVYYCSRGYYNSPFAYWGQGTLVTVSS
VL: DIQMTQSPSSLSASVGDRVTITCRASEDIYSNLAWYQQKPGKAPKLLIFDTNNLADGVPSRFSGSGSGTDFTLTISSLQPEDFATYYCQQYNNYPPTFGQGTKLEIKR
In assay [1], B13 came in with an EC50 of 0.15 nM.

B14: 32C7 rat monoclonal antibody (antibody, V domains shown)
VH: EVQLVESGGGLVQPGRSLKLSCLASGFPFSSVWMTWIRQAPGKGLEWIATITNSGASTYYSASVKGRFTISRDNVKSTLYLQMTSLGSEDTATYYCTRVGTSFDYWGQGVMVTVSS
VL: DIQMTQSPASLSASLGETVTIECRASDDIYNGLAWFQQKPGKSPQLLIYDANTLHTGVPSRFSGSGSGTQFSLKINSLQSEDVASYFCQQFYDYPPYTFGAGTKLELKR
Consider B14, for which, in assay [2], the Kd was 0.03 nM, the koff is 6.3e-06 s⁻¹ and the kon was 220000 M⁻¹ s⁻¹.

B15: 38H12 rat monoclonal antibody (antibody, V domains shown)
VH: EVQLVESGGGLVQPGRSLKLSCAASGFTFSNYGMYWIRQAPTKGLQWVAFISHGGGITYYRDSVKGRFTISRDNAKSTLYLQMDSLRSEDTATYHCAALNWELGIDYWGQGVMVTVSS
VL: DIQMTQSPASLSASLGETISIECRASEDIYSNLAWYQKKSGKSPQLLIYAANRLQDGVPSRFSGSGSGTQYSLKISGMQPEDEGDYFCLQGSKFPLTFGSGTKLEIKR
In assay [2], B15 registered a Kd of 0.4 nM, a koff of 9.8e-05 s⁻¹ and a kon of 260000 M⁻¹ s⁻¹.

B16: 37D10 rat monoclonal antibody (antibody, V domains shown)
VH: AVQLVESGGGLVQPKESLKISCAASGFTFSNAAMYWVRLAPGKGLEWVARIRTKPNNYATYYAESVKGRFTISRDDSKSMVYVQMDNLKTEDTAMYYCTAAPWRDSYAHVYWGQGVMVTVSS
VL: DIQMTQSPPVLSASVGDRVTLSCKASQNIHKNLDWYQQKHGDAPKLLIYYTDHLQTGVPSRFSGSGSATDYTLTISSLQPEDVATYYCYQYNGGPFTFGSGTKLEIKR
Turning to B16, in assay [2], the Kd is less than 617 nM and the kon was 40000 M⁻¹ s⁻¹.

B17: 1A11 rat monoclonal antibody (antibody, V domains shown)
VH: EVQLVESGGGLVQPGRSMKLSCAASGFTFRNFPMAWVRQAPTRGLEWVATISSSDGTTYYRDSVKGRFTISRDNAKSTLYLQVNSLRSEDTATYYCSRGYYNSPFAYWGQGTLVTVSS
VL: DIQMTQSPASLSASLGETVTIECRASEDIYSNLAWYQQKPGNSPQLLIFDTNNLADGVPSRFSGSGSGTQSSLKINSLQSEDVASYFCQQYNNYPPTFGGGTKLELKR
B17: in assay [2], the Kd worked out at 8.1 nM, the koff stood at 0.00093 s⁻¹ and the kon turned out to be 110000 M⁻¹ s⁻¹.

B18: 14G1 rat monoclonal antibody (antibody, V domains shown)
VH: EVQLQQSGAELAKPGSSVKISCKASGYTFTNYDISWIKQTNGQGLEYLGYINTGSGGIYSNEKFKGKATLTVDKSSNTAFMQLSSLTPEDTAVYYCVREGNNFDHWGQGVKVTVSS
VL: DTVMTQSPASMSTSVGERVTVNCKASQSVGTIVAWFQQKPGQSPKRLIYLATYRHTGVPDRFIGSGFGRDFTLTISNVEAEDLAVYYCLQYGSRPFTFGAGTKLEIKR
In assay [2], B18 had a Kd of 10.5 nM, an off-rate constant (koff) of 0.00041 s⁻¹ and a kon of 39000 M⁻¹ s⁻¹.

B19: 15D6 rat monoclonal antibody (antibody, V domains shown)
VH: EVQLQQSGPELAKPGSSVKISCKASGYTFTSSYISWIKQTTGQGLEYIGYINTGSGGTDYNEKFKDKATLTVDKSSRTVFMQLSSLTPGDSAVYYCAKSILLGSTYYLDYWGQGVMVTVSS
VL: DTVLTQSPALAVSLGQRVTISCKASRSLSSPMYSYIYWYQQKLGQQPRLLIYRASTLASGVPARFSGSGSGTDFTLNIDPVEADDIATYFCQQSWSDPFTFGSGTKLEIKR
In assay [2], B19 displayed a Kd of 14.9 nM, a koff of 0.00083 s⁻¹ and a kon of 56000 M⁻¹ s⁻¹.

B20: 14A11 rat monoclonal antibody (antibody, V domains shown)
VH: EVQLQQSGPELAKPGSSVKISCKASGYTFTNSYISWIKQTTGQGLEYVGYINTGSGGADYNEKFKGKATLTVDKSSRTAFMQLSSLTPGDSAVYYCAKSILLGSTCYFDYWGQGVLVTVSS
VL: NTVLTQSPALAVSLGQRVTISCKASRSVSSPMYSYIYWYQQKPGQQPKLLIYRASTLASGVPARFSGSGSGTDFTLNIDPVEADDIATYFCQQSWSDPFTFGSGTKLEIKR
In assay [2], B20 returned a Kd of 11.6 nM, a koff of 0.0012 s⁻¹ and a kon of 110000 M⁻¹ s⁻¹.
